Assay in all cases: purified protein
Common to all, as to format: biochemical, Phormidium nigroviride
Holding throughout (settings): 50 mM Tris-HCl pH 8.0, 30 °C, 3 μg/mL enzyme, 25-175 μM substrate

Substrate in series [1]: CC/C=C\C/C=C\C/C=C\C/C=C\C/C=C\C/C=C\CCC(=O)O
Substrate in series [2]: CC/C=C\C/C=C\C/C=C\C/C=C\C/C=C\CCCC(=O)O
Substrate in series [3]: CCCCC/C=C\C/C=C\C/C=C\C/C=C\CCCC(=O)O

B1: Osc-LOX (Phormidium nigroviride PCC 7112) (protein)
chain: MVDNMKPSLPQDDPNQEQRKDSLNRQQQAYQFDYESLSPLALLKNVPAVENFSSKYIGERILATSELPANMLAADSRTFLDPLDELQDYEDFFTLLPLPAVAKIYQTDRSFAEQRLSGANPMVLRLLDAGDPRAQTLAQISSFHPLFDLGQELQQKNIYVADYTGTDEHYRAPSKIGGGSYEKGRKFLPKPRAFFAWRWTGIRDRGEMTPIAIQLDPTPDSHVYTPFDPPVDWLFAKLCVQVADANHHEMSSHLGRTHLVMEPIAIVTARQLAQNHPLSLLLKPHFRFMLTNNELARSYLIAPGGPVDELLGGTLPETMEIAREACSTWSLDEFALPAELKNRGMDDTNQLPHYPYRDDGLLLWDAIETFVSGYLKFFYPTEIAIVQDVELQTWAQELASDRGGKVKGMPPRINTVEQLIKIVTTIIFTCGPQHSAVNFPQYEYMSFAANMPLAAYRDIPKITASGNLEVITEKDILRLLPPYKRAADQLKILFTLSAYRYDRLGYYDKSFRELYRMSFDEVFAGTPIQLLARQFQQNLNMAEQKIDANNQKRVIPYIALKPSLVINSISM
notes: N-terminal His6 tag (pET-28a, NdeI/XhoI) kept; codon-optimized synthetic gene; E. coli BL21(DE3)
Regarding B1, in “purified protein [1]”, the Km worked out at 63.9 ± 4.8 µM, the kcat was determined as 13.9 ± 0.348 s⁻¹ and the kcat/Km turned out to be 218000 ± 11700 M⁻¹ s⁻¹. In “purified protein [2]”, the Km turned out to be 67.0 ± 3.6 µM, the kcat was found to be 15.6 ± 0.452 s⁻¹ and the specificity constant (kcat/Km) amounted to 233000 ± 6670 M⁻¹ s⁻¹. In addition, in the series “purified protein [3]”, the Michaelis-Menten constant (Km) came to 68.9 ± 3.5 µM, the kcat was determined as 19.6 ± 0.277 s⁻¹ and the kcat/Km was 285000 ± 10000 M⁻¹ s⁻¹.

Values taken from PMC7606508, “Synthesis of two new lipid mediators from docosahexaenoic acid by combinatorial catalysis involving enzymatic and chemical reaction” (Scientific Reports, 2020).
